According to patent US20220332791A1 (ALIVEGEN, published 2022):

Key:
[1] = target: T1, activin A (UniProt P08476 311-426); assay: cell-based or functional assay
T1 sequence (looked up): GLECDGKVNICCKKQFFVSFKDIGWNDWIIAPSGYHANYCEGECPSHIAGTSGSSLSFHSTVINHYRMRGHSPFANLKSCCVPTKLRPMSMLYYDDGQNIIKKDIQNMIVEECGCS

[2] = target: T2, myostatin (UniProt O14793 267-375); assay: Octet Red BLI, trap on AHC biosensors, 10 nM myostatin; legend: +++ KD < 10^-8M
T2 construct: also called GDF-8; recombinant myostatin
T2 sequence (looked up): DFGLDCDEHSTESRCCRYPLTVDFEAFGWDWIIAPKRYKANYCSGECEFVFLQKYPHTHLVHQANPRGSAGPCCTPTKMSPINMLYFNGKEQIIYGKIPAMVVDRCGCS
Method: (§1) Myostatin and BMP9 binding activities of various hybrid ActRIIB ligand trap proteins were initially analyzed using Octect Red (ForteBio). Purified proteins or conditioned media were individually loaded to AHC biosensors with maximum loading. Following a baseline washing phase, the sensors were exposed to 10 nM myostatin or BMP9, respectively, for an association step followed by a dissociation step. All experiments were performed with shaking at 1,000 rpm. Binding activity was analyzed using ForteBio's software with KD being calculated using the ratio Kd/Ka.

[3] = target: T3, BMP9 (UniProt Q9UK05 320-429); assay: Octet Red BLI, trap on AHC biosensors, 10 nM BMP9; legend: +++ KD < 10^-8M
T3 construct: also called GDF-2
T3 sequence (looked up): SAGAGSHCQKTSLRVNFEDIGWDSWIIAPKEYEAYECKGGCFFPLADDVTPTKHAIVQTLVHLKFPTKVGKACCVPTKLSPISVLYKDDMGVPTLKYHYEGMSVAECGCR
Method: as §1

[4] = target: T3, BMP9; assay: KinExA, BMP-9-coupled Sepharose beads, trap held constant and ligand titrated
Method: (§2) AG-0014 and AG-0027 were analyzed by kinetic exclusion assay (KinExA) (Sapidyne Instruments, Inc.). 20-30 μg/ml of myostatin, activin A or BMP-9 was separately coupled to NHS-Activated Sepharose 4 Fast Flow beads (GE Healthcare) using experimental procedures recommended by Sapidyne Instruments. The concentration for each hybrid ActRIIB ligand trap protein was held constant as the ligand was titrated in a 2.5-fold serial dilution. Solutions were allowed to reach equilibrium by incubation at room temperature up to 24 hours and subsequently passed through a flow cell pre-packed with ligand-coated Sepharose beads on a KinExA 3000 machine (Sapidyne Instruments). The free hybrid ActRIIB ligand trap proteins captured on the beads was detected by Alexa Fluor 647-labeled goat anti-human-Fc antibody (Jackson ImmunoResearch Laboratories, Inc.). The ligand binding affinity values (KD) were calculated using the KinExA Pro software (Sapidyne Instruments).

[5] = target: T1, activin A; assay: KinExA, activin A-coupled Sepharose beads, trap held constant and ligand titrated
Method: as §2

[6] = target: T3, BMP9; assay: cell-based or functional assay
[7] = target: T2, myostatin; assay: cell-based or functional assay
[8] = target: T3, BMP9; assay: cell-based or functional assay; remark: listed apart in the source
[9] = target: T4, activin B (UniProt P09529 293-407); assay: cell-based or functional assay
T4 sequence (looked up): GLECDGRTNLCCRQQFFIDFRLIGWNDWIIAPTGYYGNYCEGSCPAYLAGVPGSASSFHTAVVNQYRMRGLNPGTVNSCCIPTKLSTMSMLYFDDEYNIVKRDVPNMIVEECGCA

[10] = target: T1, activin A; assay: cell-based or functional assay; remark: listed apart in the source
[11] = target: T2, myostatin; assay: KinExA, myostatin-coupled Sepharose beads, trap held constant and ligand titrated
Method: as §2

[12] = target: T2, myostatin; assay: cell-based or functional assay; remark: listed apart in the source
[13] = target: T3, BMP9; assay: Octet Red BLI, trap on AHC biosensors, 10 nM BMP9; legend: ++ KD: 10^-6 - 10^-7M
Method: as §1

[14] = target: T3, BMP9; assay: Octet Red BLI, trap on AHC biosensors, 10 nM BMP9; legend: + KD 10^-4 - 10^-6M
Method: as §1

B1: wild-type ActRIIB-ECD-Fc fusion protein (Fc fusion)
chain: ETRECIYYNANWELERTNQSGLERCEGEQDKRLHCYASWRNSSGTIELVKKGCWLDDFNCYDRQECVATEENPQVYFCCCEGNFCNERFTHLPEAGGPEVTYEPPPTAPTGGGGSESKYGPPCPPCP
notes: also called WT ActRIIB-Fc; WT; not shown: human Fc domain
IC50 (read off the curve) (activin A-induced luciferase, C2C12-CAGA-luc reporter cells) [1]: ~4 nM
KD [2]: < 10 nM
KD [3]: < 10 nM
Kd [4]: 0.00425 nM
Kd [5]: 0.00138 nM
IC50 (read off the curve) (BMP9-induced luciferase, C2C12-BRE-luc reporter cells) [6]: ~10 nM
Cell-Based IC50 (nM) Against Myostatin, C2C12-CAGA-luc reporter [7]: 1.24 nM
Cell-Based IC50 (nM) Against BMP9, C2C12-BRE-luc reporter [8]: 3.4 nM
Cell-Based IC50 (nM) Against Activin B, C2C12-CAGA-luc reporter [9]: 1.04 nM
Cell-Based IC50 (nM) Against Activin A, C2C12-CAGA-luc reporter [10]: 1.27 nM
Kd [11]: 0.00506 nM

B2: hybrid ActRIIB ligand trap protein AG-0027 (SEQ ID NO: 29) (Fc fusion)
chain: ETRECIYYNANWELERTNQSGLERCEGDQDKRLHCYASWRNSSGTIELVKKGCWLDDINCYDRQECVATKENPQVYFCCCEGNFCNERFTHLPEAGGPEVTYEPPPTAPTGGGGSESKYGPPCPPCP
notes: also called Hybrid Trap A; Hybrid Trap; not shown: human Fc domain
KD [2]: < 10 nM
Kd [5]: 0.00109 nM
Cell-Based IC50 (nM) Against Myostatin, C2C12-CAGA-luc reporter [7]: 1.14 nM
Cell-Based IC50 (nM) Against Activin B, C2C12-CAGA-luc reporter [9]: 1.3 nM
Cell-Based IC50 (nM) Against Activin A, C2C12-CAGA-luc reporter [10]: 1.62 nM
Kd [11]: 0.00787 nM

B3: hybrid ActRIIB ligand trap protein AG-0003 (SEQ ID NO: 5) (Fc fusion, not shown: a dimerising Fc or GST)
chain: ETRECIYYNANWELERTNQSGLERCEGEQDKRLHCYASWRNSSGTIELVKKGCWLDDINCYDRTDCVEKKDSPEVYFCCCEGNFCNERFTHLPEAGGPEVTYEPPPTAPTGGGGSESKYGPPCPPCP
IC50 (read off the curve) (myostatin-induced luciferase, C2C12-CAGA-luc reporter cells) [12]: ~0.4 nM
IC50 (read off the curve) (activin A-induced luciferase, C2C12-CAGA-luc reporter cells) [1]: ~10 nM
KD [2]: < 10 nM
KD [13]: 100 to 1000 nM

B4: hybrid ActRIIB ligand trap protein AG-0005 (SEQ ID NO: 7) (Fc fusion, not shown: a dimerising Fc or GST)
chain: ETRECIYYNANWELERTNQSGLERCEGEQDKRLHCYASWRNSSGTIELVKKGCWLDDFNCYDRTDCVEKKDSPQVYFCCCEGNFCNERFTHLPEAGGPEVTYEPPPTAPTGGGGSESKYGPPCPPCP
IC50 (read off the curve) (myostatin-induced luciferase, C2C12-CAGA-luc reporter cells) [12]: ~1 nM
IC50 (read off the curve) (activin A-induced luciferase, C2C12-CAGA-luc reporter cells) [1]: ~10 nM
KD [14]: 1000 to 100000 nM
KD [2]: < 10 nM

B5: hybrid ActRIIB ligand trap protein AG-0008 (SEQ ID NO: 10) (Fc fusion)
chain: ETRECIYYNANWELERTNQSGLERCEGEQDKRLHCYASWRNSSGTIELVKKGCWLDDFNCYDRQECVEKKDSPQVYFCCCEGNFCNERFTHLPEAGGPEVTYEPPPTAPTGGGGSESKYGPPCPPCP
notes: not shown: human Fc domain
KD [2]: < 10 nM
KD [13]: 100 to 1000 nM

B6: hybrid ActRIIB ligand trap protein AG-0014 (SEQ ID NO: 16) (Fc fusion)
chain: ETRECIYYNANWELERTNQSGLERCYGDKDKRRHCYASWRNSSGTIELVKKGCWLDDFNCYDRQECVATEENPQVYFCCCEGNFCNERFTHLPEAGGPEVTYEPPPTAPTGGGGSESKYGPPCPPCP
notes: also called Hybrid Trap B; not shown: human Fc domain
KD [2]: < 10 nM
Kd [5]: 0.000357 nM
Cell-Based IC50 (nM) Against Myostatin, C2C12-CAGA-luc reporter [7]: 0.95 nM
Cell-Based IC50 (nM) Against Activin B, C2C12-CAGA-luc reporter [9]: 2.1 nM
Cell-Based IC50 (nM) Against Activin A, C2C12-CAGA-luc reporter [10]: 1.15 nM
Kd [11]: 0.00875 nM

B7: hybrid ActRIIB ligand trap protein AG-0007 (SEQ ID NO: 9) (Fc fusion)
chain: ETRECIYYNANWELERTNQSGLERCEGEQDKRLHCYASWRNSSGTIELVKKGCWLDDFNCYDRQECVEKKDSPEVYFCCCEGNFCNERFTHLPEAGGPEVTYEPPPTAPTGGGGSESKYGPPCPPCP
notes: not shown: human Fc domain
KD [14]: 1000 to 100000 nM
KD [2]: < 10 nM

B8: hybrid ActRIIB ligand trap protein AG-0006 (SEQ ID NO: 8) (Fc fusion)
chain: ETRECIYYNANWELERTNQSGLERCEGEQDKRLHCYASWRNSSGTIELVKKGCWLDDFNCYDRTDCVEKKDSPEVYFCCCEGNFCNERFTHLPEAGGPEVTYEPPPTAPTGGGGSESKYGPPCPPCP
notes: not shown: human Fc domain
KD [14]: 1000 to 100000 nM
KD [2]: < 10 nM
